The Kd is the equilibrium constant for the complex coming apart.

This is an account of results in article PMC5077151, “Wild-Type U2AF1 Antagonizes the Splicing Program Characteristic of U2AF1-Mutant Tumors and Is Required for Cell Survival”.

One data set deals with U2AF1 S34F;U2AF2;SF1 (Homo sapiens?;Homo sapiens?;Homo …, UniProt Q01081;P26368-2;Q15637 1-193;85-471;1-255, S34F||). Description: fluorescence anisotropy; 20 nM 5'-fluorescein RNA, size-exclusion chromatography buffer (composition, pH and temperature not in the material), 384-well plate, 3 replicates. To be noted: protein: recombinant;recombinant;recombinant; tags: ;;; copies: 1;1;1; label: 5' fluorescein.

A further data set has as its target U2AF1 WT;U2AF2;SF1 (Homo sapiens?;Homo sapiens?;Homo …, UniProt Q01081;P26368-2;Q15637 1-193;85-471;1-255, ||). The description is as above. As to conditions: protein: recombinant;recombinant;recombinant; tags: ;;; copies: 1;1;1; label: 5' fluorescein.

Sequence of U2AF1 S34F;U2AF2;SF1 (Q01081 1-193 S34F, chain 1 of 3): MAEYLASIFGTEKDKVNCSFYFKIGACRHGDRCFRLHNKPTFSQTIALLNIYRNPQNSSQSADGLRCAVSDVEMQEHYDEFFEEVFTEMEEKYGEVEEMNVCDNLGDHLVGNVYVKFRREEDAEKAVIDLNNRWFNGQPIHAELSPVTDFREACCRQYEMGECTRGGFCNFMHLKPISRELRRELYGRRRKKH
Sequence of U2AF1 S34F;U2AF2;SF1 (P26368 other isoform, or with tags, fused parts or gaps S34F|| | S34F S34F, chain 2 of 3): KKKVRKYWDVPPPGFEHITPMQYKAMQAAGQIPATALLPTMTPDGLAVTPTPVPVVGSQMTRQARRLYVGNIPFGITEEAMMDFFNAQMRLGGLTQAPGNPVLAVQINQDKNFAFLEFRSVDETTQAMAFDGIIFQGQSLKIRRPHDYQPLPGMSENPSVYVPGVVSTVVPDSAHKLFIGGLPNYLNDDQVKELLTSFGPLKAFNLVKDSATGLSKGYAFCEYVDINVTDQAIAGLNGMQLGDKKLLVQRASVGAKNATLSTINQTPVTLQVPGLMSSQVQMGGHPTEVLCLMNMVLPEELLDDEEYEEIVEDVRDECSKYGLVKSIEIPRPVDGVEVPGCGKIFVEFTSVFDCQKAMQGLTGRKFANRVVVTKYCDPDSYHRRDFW
Sequence of U2AF1 S34F;U2AF2;SF1 (Q15637 1-255, chain 3 of 3): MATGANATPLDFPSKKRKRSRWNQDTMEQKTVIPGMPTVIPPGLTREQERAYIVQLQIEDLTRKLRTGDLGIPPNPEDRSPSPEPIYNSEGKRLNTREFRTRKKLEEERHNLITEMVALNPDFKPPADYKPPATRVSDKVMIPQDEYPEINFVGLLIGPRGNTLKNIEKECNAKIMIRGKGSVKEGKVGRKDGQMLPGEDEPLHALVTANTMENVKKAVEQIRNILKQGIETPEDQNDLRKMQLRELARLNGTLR
Sequence of U2AF1 WT;U2AF2;SF1 (Q01081 1-193, chain 1 of 3): as the sequence (Q01081 1-193 S34F, chain 1 of 3) above, with F34S counted along it
Sequence of U2AF1 WT;U2AF2;SF1 (P26368 other isoform, or with tags, fused parts or gaps ||, chain 2 of 3): as the sequence (P26368 other isoform, or with tags, fused parts or gaps S34F|| | S34F S34F, chain 2 of 3) above
Sequence of U2AF1 WT;U2AF2;SF1 (Q15637 1-255, chain 3 of 3): as the sequence (Q15637 1-255, chain 3 of 3) above

Regarding GCCGGCUGAGCCCCUCCACUUCCAGGUCAGCCA (ssRNA) [MED15 distal 3' splice site], the Kd is 32 ± 8 nM with U2AF1 S34F;U2AF2;SF1 and 157 ± 25 nM with U2AF1 WT;U2AF2;SF1.

With UAAACACUUGCUAUUAUUAUUUAAGCCUUGAAC (ssRNA) [ZFAND1 proximal 3' splice site], the Kd worked out at 5 ± 1 nM in the data set with U2AF1 S34F;U2AF2;SF1 and 24 ± 1 nM with U2AF1 WT;U2AF2;SF1.

For the molecule UUUUUCUCAUCUUUAACAGUCACAGUUGCAGAU (ssRNA) [FXR1 proximal 3' splice site], the values for the Kd with U2AF1 S34F;U2AF2;SF1 and with U2AF1 WT;U2AF2;SF1 were 38 ± 6 nM and 71 ± 6 nM, respectively.

With UGAAAAAGUUGUCUCCCUUUGGCAGGCAAAAGA (ssRNA) [FXR1 distal 3' splice site], the Kd came out at 46 ± 11 nM with U2AF1 S34F;U2AF2;SF1 and 41 ± 6 nM with U2AF1 WT;U2AF2;SF1.

Take UUGACUGUCCUUCUCUAUUUUGAAGCCUUCACAGG (ssRNA) [CEP164 proximal 3' splice site]: the figures for the Kd with U2AF1 S34F;U2AF2;SF1 and with U2AF1 WT;U2AF2;SF1 were 49 ± 9 nM and 12 ± 1 nM, respectively.

For CAUUUCCUCCUUUUUGCAUUUUCAGGUGACUGU (ssRNA) [ZFAND1 distal 3' splice site], the values for the Kd with U2AF1 S34F;U2AF2;SF1 and with U2AF1 WT;U2AF2;SF1 were 43 ± 7 nM and 53 ± 4 nM, respectively.

Take UCUUCCAUAUCCACCUUUUCCUAAGAUGGCAAG (ssRNA) [ATR proximal 3' splice site]: in the data set with U2AF1 WT;U2AF2;SF1, the Kd came out at 188 ± 52 nM.

Take UUGGUUUUAUGUUUCUUCUUUUUAGGCCAAGAC (ssRNA) [ATR distal 3' splice site]: the values for the Kd with U2AF1 S34F;U2AF2;SF1 and in the data set with U2AF1 WT;U2AF2;SF1 were 49 ± 6 nM and 7 ± 0.5 nM, respectively.

For the molecule GUAUAUAACUUUUAACUCUCGAUAGGAACUAAUUC (ssRNA) [FMR1 proximal 3' splice site], the Kd with U2AF1 S34F;U2AF2;SF1 turned out to be 281 ± 44 nM; with U2AF1 WT;U2AF2;SF1, 188 ± 27 nM.

Turning to GUCUGUUGUCCCUCUGUCCUCAAAGAUGAUCAC (ssRNA) [MED15 proximal 3' splice site], the Kd was determined as 483 ± 106 nM with U2AF1 S34F;U2AF2;SF1 and 208 ± 35 nM with U2AF1 WT;U2AF2;SF1.

Turning to CACUUGUCAUCAUUUUUGUUUCUAGAGUGUCCACA (ssRNA) [CEP164 distal 3' splice site], the Kd with U2AF1 S34F;U2AF2;SF1 was determined as 447 ± 63 nM; with U2AF1 WT;U2AF2;SF1 it was 497 ± 46 nM.

As to GAAGCAUCAAAUGCUUCUGAAACAGAAUCUGACCA (ssRNA) [FMR1 distal 3' splice site], the Kd came out at 444 ± 58 nM with U2AF1 S34F;U2AF2;SF1 and 427 ± 20 nM in the data set with U2AF1 WT;U2AF2;SF1.
